Experimental findings from the supplement of paper PMC9112550, “Optimization of the antimicrobial peptide Bac7 by deep mutational scanning” (BMC Biology, 2022) are described below.
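Further: peptides expressed intracellularly from a pBAD plasmid library in pooled LB shake-flask culture, induced with 0.3% L-arabinose, DNA abundance read by NGS, three biological replicates, DESeq2 with apeglm shrinkage.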

For the data set, the system named is Escherichia coli TOP10. The data set can be described thus: shrunken log2 fold change of peptide-encoding DNA abundance (4.5 h post-induction vs induction); higher = less antimicrobial activity (less host growth inhibition). To be noted: time post-induction: 4.5 h; library: site-saturation at positions 5, 18, 19, 20.
In the case of RRIRIRPPRLPRPRPRPDYSPRP, the “shrunken log2 fold change” value is -1.21.
With RRIRHRPPRLPRPRPRPGTQPRP, the “shrunken log2 fold change” value was -0.128.
As for RRIRARPPRLPRPRPRPYPPPRP, the “shrunken log2 fold change” value was -0.129.
On to RRIRFRPPRLPRPRPRPRTNPRP, for which the “shrunken log2 fold change” value is -0.179.
On to RRIRDRPPRLPRPRPRPYLYPRP, for which the “shrunken log2 fold change” value is -0.0408.
For RRIRGRPPRLPRPRPRPCSKPRP, the “shrunken log2 fold change” value was found to be 0.09.
Consider RRIRTRPPRLPRPRPRPRGDPRP, for which the “shrunken log2 fold change” value stood at 0.409.
RRIRERPPRLPRPRPRPFHTPRP: the “shrunken log2 fold change” value was -0.0574.
Take RRIRRRPPRLPRPRPRPAPLPRP: the “shrunken log2 fold change” value was determined as 0.857.
For RRIRARPPRLPRPRPRPNEMPRP, the “shrunken log2 fold change” value was -0.0653.
In the case of RRIRTRPPRLPRPRPRPDFVPRP, the “shrunken log2 fold change” value is -0.106.
As to RRIRERPPRLPRPRPRPANCPRP, the “shrunken log2 fold change” value was -0.65.
Consider RRIRERPPRLPRPRPRPLMVPRP, for which the “shrunken log2 fold change” value was -0.498.
With RRIRSRPPRLPRPRPRPIDIPRP the figure was -0.3; with RRIRNRPPRLPRPRPRPLMMPRP, -0.193.
RRIRNRPPRLPRPRPRPWIMPRP: the “shrunken log2 fold change” value was -1.05.
With RRIRYRPPRLPRPRPRPETHPRP, the “shrunken log2 fold change” value is -0.863.
For the sequence RRIRVRPPRLPRPRPRPEKQPRP, the “shrunken log2 fold change” value was 0.101.
For the sequence RRIRFRPPRLPRPRPRPPPYPRP, the “shrunken log2 fold change” value turned out to be 0.445.
RRIRYRPPRLPRPRPRPDPRPRP: the “shrunken log2 fold change” value is -0.0317.
As to RRIRARPPRLPRPRPRPCFGPRP, the “shrunken log2 fold change” value came to 0.0532.
To RRIRIRPPRLPRPRPRPRMDPRP belongs -0.389.
Regarding RRIRSRPPRLPRPRPRPVQAPRP, the “shrunken log2 fold change” value stood at 0.0475.
Turning to RRIRDRPPRLPRPRPRPVGLPRP, the “shrunken log2 fold change” value is 0.627.
Turning to RRIRRRPPRLPRPRPRPWYNPRP, the “shrunken log2 fold change” value was -0.468.
In the case of RRIRLRPPRLPRPRPRPIHIPRP, the “shrunken log2 fold change” value is -0.374.
RRIRGRPPRLPRPRPRPYHMPRP: the “shrunken log2 fold change” value is -0.345.
For the sequence RRIRGRPPRLPRPRPRPGPIPRP, the “shrunken log2 fold change” value was 0.619.
Take RRIRRRPPRLPRPRPRPALLPRP: the “shrunken log2 fold change” value is -0.0136.
RRIRGRPPRLPRPRPRPNLWPRP: the “shrunken log2 fold change” value is 0.671.
Consider RRIRDRPPRLPRPRPRPLWMPRP, for which the “shrunken log2 fold change” value turned out to be 0.0442.
Consider RRIRCRPPRLPRPRPRPFDNPRP, for which the “shrunken log2 fold change” value was -0.437.
To RRIRSRPPRLPRPRPRPEASPRP belongs 0.715.
As to RRIRGRPPRLPRPRPRPQVFPRP, the “shrunken log2 fold change” value was determined as 0.0336.
To RRIRSRPPRLPRPRPRPIVSPRP belongs 0.0431; to RRIRQRPPRLPRPRPRPARRPRP, 0.486.
As to RRIRIRPPRLPRPRPRPVMFPRP, the “shrunken log2 fold change” value was -0.255.
For the sequence RRIRPRPPRLPRPRPRPRCFPRP, the “shrunken log2 fold change” value is 0.155.
In the case of RRIRVRPPRLPRPRPRPVRHPRP, the “shrunken log2 fold change” value was determined as 0.0933.
To RRIRKRPPRLPRPRPRPWLQPRP belongs -0.0256; to RRIRIRPPRLPRPRPRPCWPPRP, -0.232.
Consider RRIRSRPPRLPRPRPRPPCKPRP, for which the “shrunken log2 fold change” value was -0.163.
RRIRNRPPRLPRPRPRPCDAPRP: the “shrunken log2 fold change” value was -0.195.
For the sequence RRIRCRPPRLPRPRPRPQCMPRP, the “shrunken log2 fold change” value is -0.833.
Regarding RRIRFRPPRLPRPRPRPNWQPRP, the “shrunken log2 fold change” value came to 0.0965.
On to RRIRKRPPRLPRPRPRPVFHPRP, for which the “shrunken log2 fold change” value was 0.818.
For the sequence RRIRFRPPRLPRPRPRPIAIPRP, the “shrunken log2 fold change” value was -0.149.
RRIRSRPPRLPRPRPRPFHYPRP: the “shrunken log2 fold change” value was -0.429.
On to RRIRFRPPRLPRPRPRPIEAPRP, for which the “shrunken log2 fold change” value is -0.181.
Turning to RRIRGRPPRLPRPRPRPINKPRP, the “shrunken log2 fold change” value was found to be 0.287.
As to RRIRKRPPRLPRPRPRPKTWPRP, the “shrunken log2 fold change” value worked out at 0.344.
With RRIRYRPPRLPRPRPRPHKRPRP, the “shrunken log2 fold change” value was -0.163.
Regarding RRIRIRPPRLPRPRPRPMKYPRP, the “shrunken log2 fold change” value is -0.104.
With RRIRWRPPRLPRPRPRPKIKPRP the figure was -0.0556.
Consider RRIRTRPPRLPRPRPRPGGQPRP, for which the “shrunken log2 fold change” value amounted to 0.585.
Take RRIRDRPPRLPRPRPRPVHHPRP: the “shrunken log2 fold change” value worked out at 0.0594.
In the case of RRIRCRPPRLPRPRPRPNTDPRP, the “shrunken log2 fold change” value was -0.27.
For RRIRERPPRLPRPRPRPALTPRP, the “shrunken log2 fold change” value worked out at 0.131.
As for RRIRPRPPRLPRPRPRPTCRPRP, the “shrunken log2 fold change” value is 0.418.
To RRIRPRPPRLPRPRPRPRWMPRP belongs 0.412; to RRIRCRPPRLPRPRPRPPFNPRP, -0.137; to RRIRRRPPRLPRPRPRPAQQPRP, 0.938.
RRIRKRPPRLPRPRPRPEGRPRP: the “shrunken log2 fold change” value is 0.261.
Take RRIRYRPPRLPRPRPRPYQIPRP: the “shrunken log2 fold change” value was -0.659.
Regarding RRIRLRPPRLPRPRPRPQNNPRP, the “shrunken log2 fold change” value is -0.585.
To RRIRRRPPRLPRPRPRPTGFPRP belongs 0.728.
To RRIRDRPPRLPRPRPRPMVIPRP belongs 0.0392; to RRIRHRPPRLPRPRPRPLYMPRP, -0.00599.
Consider RRIRWRPPRLPRPRPRPYGFPRP, for which the “shrunken log2 fold change” value is -0.00325.
With RRIRARPPRLPRPRPRPLAWPRP, the “shrunken log2 fold change” value was 0.721.
With RRIRHRPPRLPRPRPRPACLPRP the figure was -0.221; with RRIRMRPPRLPRPRPRPQWHPRP, 0.265.
For the sequence RRIRCRPPRLPRPRPRPEYQPRP, the “shrunken log2 fold change” value amounted to 0.123.
To RRIRGRPPRLPRPRPRPCHNPRP belongs 0.033; to RRIRRRPPRLPRPRPRPPAPPRP, 1.13.
Turning to RRIRHRPPRLPRPRPRPPEDPRP, the “shrunken log2 fold change” value stood at 0.314.
In the case of RRIRMRPPRLPRPRPRPRARPRP, the “shrunken log2 fold change” value came to 1.67.
Turning to RRIRLRPPRLPRPRPRPRIHPRP, the “shrunken log2 fold change” value is -0.081.
As for RRIRGRPPRLPRPRPRPTPEPRP, the “shrunken log2 fold change” value is 0.917.
For the sequence RRIRNRPPRLPRPRPRPTYNPRP, the “shrunken log2 fold change” value was -0.692.
In the case of RRIRDRPPRLPRPRPRPGRGPRP, the “shrunken log2 fold change” value is 0.725.
As for RRIRARPPRLPRPRPRPKIRPRP, the “shrunken log2 fold change” value came to 0.379.
As for RRIRVRPPRLPRPRPRPKGFPRP, the “shrunken log2 fold change” value is -0.00211.
In the case of RRIRMRPPRLPRPRPRPQMKPRP, the “shrunken log2 fold change” value was found to be 0.518.
For RRIRDRPPRLPRPRPRPGWIPRP, the “shrunken log2 fold change” value amounted to 0.19.
On to RRIRDRPPRLPRPRPRPLWDPRP, for which the “shrunken log2 fold change” value was -0.0822.
With RRIRERPPRLPRPRPRPITAPRP, the “shrunken log2 fold change” value was -0.573.
Take RRIRVRPPRLPRPRPRPMVAPRP: the “shrunken log2 fold change” value was -0.148.
As for RRIRWRPPRLPRPRPRPENKPRP, the “shrunken log2 fold change” value is -0.13.
For RRIRQRPPRLPRPRPRPDAGPRP, the “shrunken log2 fold change” value was -0.0738.
As for RRIRLRPPRLPRPRPRPSTFPRP, the “shrunken log2 fold change” value is -0.33.
In the case of RRIRWRPPRLPRPRPRPWTKPRP, the “shrunken log2 fold change” value was -0.0653.
With RRIRARPPRLPRPRPRPNATPRP, the “shrunken log2 fold change” value worked out at 1.97.
As to RRIRVRPPRLPRPRPRPNQTPRP, the “shrunken log2 fold change” value is -0.0286.
Turning to RRIRPRPPRLPRPRPRPLKSPRP, the “shrunken log2 fold change” value was -0.157.
For the sequence RRIRSRPPRLPRPRPRPQYMPRP, the “shrunken log2 fold change” value is -0.695.
With RRIRRRPPRLPRPRPRPSDWPRP, the “shrunken log2 fold change” value is -0.302.
RRIRHRPPRLPRPRPRPTKNPRP: the “shrunken log2 fold change” value is -0.312.
Regarding RRIRPRPPRLPRPRPRPIYPPRP, the “shrunken log2 fold change” value was -0.269.
Regarding RRIRQRPPRLPRPRPRPQKQPRP, the “shrunken log2 fold change” value is 0.057.
On to RRIRKRPPRLPRPRPRPKSDPRP, for which the “shrunken log2 fold change” value was -0.015.
To RRIRGRPPRLPRPRPRPSCAPRP belongs 1.08; to RRIRPRPPRLPRPRPRPRQRPRP, 0.382.
Consider RRIRPRPPRLPRPRPRPASLPRP, for which the “shrunken log2 fold change” value amounted to 0.187.
With RRIRMRPPRLPRPRPRPWVQPRP, the “shrunken log2 fold change” value is 0.015.
Regarding RRIRNRPPRLPRPRPRPWSTPRP, the “shrunken log2 fold change” value was -0.0852.
To RRIRFRPPRLPRPRPRPIWQPRP belongs -0.146; to RRIRIRPPRLPRPRPRPEWRPRP, 0.257; to RRIRGRPPRLPRPRPRPDLGPRP, 0.688.
Consider RRIRQRPPRLPRPRPRPTWLPRP, for which the “shrunken log2 fold change” value is 0.295.
Regarding RRIRWRPPRLPRPRPRPDMQPRP, the “shrunken log2 fold change” value came out at 0.337.
As to RRIRCRPPRLPRPRPRPYPEPRP, the “shrunken log2 fold change” value is -0.0664.
Consider RRIRCRPPRLPRPRPRPYGPPRP, for which the “shrunken log2 fold change” value is -0.398.
To RRIRFRPPRLPRPRPRPTVPPRP belongs 0.341; to RRIRQRPPRLPRPRPRPKMIPRP, -0.231; to RRIRLRPPRLPRPRPRPMLIPRP, -0.0317.
For RRIRERPPRLPRPRPRPSADPRP, the “shrunken log2 fold change” value is -0.625.
For the sequence RRIRERPPRLPRPRPRPGIKPRP, the “shrunken log2 fold change” value is -0.587.
Turning to RRIRLRPPRLPRPRPRPQFRPRP, the “shrunken log2 fold change” value was -0.244.
As for RRIRPRPPRLPRPRPRPGLCPRP, the “shrunken log2 fold change” value amounted to 0.399.
Take RRIRGRPPRLPRPRPRPNMLPRP: the “shrunken log2 fold change” value came out at 0.374.
Take RRIRDRPPRLPRPRPRPMPHPRP: the “shrunken log2 fold change” value is -0.0342.
Take RRIRWRPPRLPRPRPRPCMFPRP: the “shrunken log2 fold change” value was -0.244.
Consider RRIRVRPPRLPRPRPRPCGCPRP, for which the “shrunken log2 fold change” value stood at 0.0165.
With RRIRMRPPRLPRPRPRPFNVPRP the figure was -0.0076.
